How the values were obtained:
TIA1 RRM2_3 = target: T1, TIA1 RRM2_3 (human, UniProt P31483-2 93-274); assay: EMSA; EMSA: 10 mM sodium phosphate pH 6.5, 50 mM NaCl, 1 mM DTT, 1 U/ul SUPERase-In, room temperature 20 min, native 1.2% agarose; RNA annealed in 10 mM Tris-HCl pH 7.5, 100 mM KCl; details: protein: recombinant, tags: His6-SUMO removed by SUMO protease, label: 5'-Cy3
T1 sequence: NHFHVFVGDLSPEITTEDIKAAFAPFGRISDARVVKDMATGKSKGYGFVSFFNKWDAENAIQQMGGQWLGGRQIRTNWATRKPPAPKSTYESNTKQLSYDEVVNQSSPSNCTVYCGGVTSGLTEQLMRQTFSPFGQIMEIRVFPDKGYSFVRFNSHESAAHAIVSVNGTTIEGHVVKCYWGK

TIA1 RRM1-3 = target: T2, TIA1 RRM1-3 (human, UniProt P31483-2 1-274); assay: as above; details: protein: recombinant; tags: His6-SUMO, removed (same protocol as RRM2_3); label: 5'-Cy3; single strand
T2 sequence: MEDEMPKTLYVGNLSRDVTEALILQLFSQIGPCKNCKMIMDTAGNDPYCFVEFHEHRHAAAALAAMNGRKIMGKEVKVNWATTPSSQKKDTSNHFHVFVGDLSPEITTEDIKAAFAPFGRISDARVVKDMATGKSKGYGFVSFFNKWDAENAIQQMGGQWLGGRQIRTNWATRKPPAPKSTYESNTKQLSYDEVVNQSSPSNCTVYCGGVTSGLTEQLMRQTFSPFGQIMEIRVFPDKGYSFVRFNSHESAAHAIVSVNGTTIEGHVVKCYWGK

## UUUUUUUUUUU (ssRNA) [U11]
TIA1 RRM2_3; single strand
  binding result: binds
TIA1 RRM1-3
  binding result: binds

## UUUGAUUUUAACGAACUUAAA (structured_RNA) [MERS SL3]
TIA1 RRM2_3
  Kd: 300 ± 20 nM

## UCACUCUUGAACGAACUUAAA (structured_RNA) [RousettusHKU9 SL3]
TIA1 RRM2_3
  Kd: 410 ± 20 nM

## UUUCGAUCUCUUGUAGAUC (structured_RNA) [SL2]
TIA1 RRM2_3; hairpin, 5-nt loop
  Kd: 2470 ± 370 nM

## UUUCGAUCUCUUGUAGAUCUGUUCUCUAAACGAACUUUAAAAUCU (structured_RNA) [SL2+SL3]
TIA1 RRM2_3; two hairpins
  Kd: 430 ± 50 nM

## UGUUCUCUAAACGAACUUUAA (structured_RNA) [SL3]
TIA1 RRM2_3
  Kd: 780 ± 90 nM

Source: publication PMC10287707
